The record followed here is publication PMC2778949.

For the experiment, the target named is Serum Resistance-Associated protein with C-terminal S tag. Description: pull-down (sup/bound fractions, western blot with α-S tag), quantified. To be noted: read off a plot. For orientation: In western blotting, separated proteins are transferred to a membrane and probed.

As for “Apolipoprotein L-I, wild type, with C-terminal V5-His6 tag (from UniProt O14791-1) N386T; N387K; N388I; Y389Q”, the percent of parent (parent: est. 100) worked out at 5.5 % binding.
On to “apoL1 truncated mutant NNNY (9 C-terminal amino acids removed, human last four residues NNNY), C-terminal V5-His6 tag (from UniProt O14791-1) N386T; N387K; N388I; Y389Q”, for which the response (parent: est. 9) turned out to be 9.5 % binding.
